Measured values from the Human Domainome abundance scans (Beltran et al. 2025).
± gives the uncertainty stated by the source.

B1: LIM and senescent cell antigen-like-containing domain protein 2, residues 13 to 71; numbered along this chain, Q7Z4I7 (parent)
chain: AVCQRCQARFSPAERIVNSNGELYHEHCFVCAQCFRPFPEGLFYEFEGRKYCEHDFQML

Variants of: B1
Experiment: abundance fitness (aPCA) (normalised: wild type 0, dead -1); higher = more abundant; growth selection in yeast, the domain comes from the species named
Settings: Homo sapiens

Point of comparison: AVCQRCQARFSPAERIVNSNGELYHEHCFVCAQCFRPFPEGLFYEFEGRKICEHDFQML [Y51I], abundance fitness -0.283 ± 0.098. Against it:
- AVCQRCQARFSPAERIVNSNGELYHEHCFVCAQCFRPFPEGLFYEFEGRKYCEHDKQML [F56K] — lower, -0.757 ± 0.34
- AVCQRCQARFSPAERIVNSNGELYHEHCFVCAQCFRPFPEGLFYEFEGRKYCEHDEQML [F56E] — within error, -0.648 ± 0.42
- AVCQRCQARFSPAERIVNSNGELYHEHCFVCAQCFRPFPEGLFYEFEGRKYCEHDLQML [F56L] — within error, -0.091 ± 0.17
- AVCQRCQARFSPAERIVNSNGELYHEHCFVCAQCFRPFPEGLFYEFEGRKYCEHDTQML [F56T] — within error, -0.114 ± 0.19
- AVCQRCQARFSPAERIVNSNGELYHEHCFVCAQCFRPFPEGLFYEFEGRKYCEHDAQML [F56A] — within error, -0.316 ± 0.27
- AVCQRCQARFSPAERIVNSNGELYHEHCFVCAQCFRPFPEGLFYEFEGRKYCEHDRQML [F56R] — within error, -0.361 ± 0.21
- AVCQRCQARFSPAERIVNSNGELYHEHCFVCAQCFRPFPEGLFYEFEGRKYCEHDSQML [F56S] — within error, -0.105 ± 0.22
- AVCQRCQARFSPAERIVNSNGELYHEHCFVCAQCFRPFPEGLFYEFEGRKYCEHYFQML [D55Y] — lower, -0.814 ± 0.12
- AVCQRCQARFSPAERIVNSNGELYHEHCFVCAQCFRPFPEGLFYEFEGRKYCEHRFQML [D55R] — lower, -0.747 ± 0.057
- AVCQRCQARFSPAERIVNSNGELYHEHCFVCAQCFRPFPEGLFYEFEGRKYCEHMFQML [D55M] — lower, -1.24 ± 0.22
- AVCQRCQARFSPAERIVNSNGELYHEHCFVCAQCFRPFPEGLFYEFEGRKYCEHKFQML [D55K] — lower, -0.918 ± 0.12
- AVCQRCQARFSPAERIVNSNGELYHEHCFVCAQCFRPFPEGLFYEFEGRKYCEHQFQML [D55Q] — lower, -0.753 ± 0.12
- AVCQRCQARFSPAERIVNSNGELYHEHCFVCAQCFRPFPEGLFYEFEGRKYCEHGFQML [D55G] — lower, -0.636 ± 0.068
- AVCQRCQARFSPAERIVNSNGELYHEHCFVCAQCFRPFPEGLFYEFEGRKYCEHHFQML [D55H] — higher, 0.018 ± 0.088
- AVCQRCQARFSPAERIVNSNGELYHEHCFVCAQCFRPFPEGLFYEFEGRKYCEHVFQML [D55V] — lower, -0.964 ± 0.1
- AVCQRCQARFSPAERIVNSNGELYHEHCFVCAQCFRPFPEGLFYEFEGRKYCEHEFQML [D55E] — within error, -0.456 ± 0.088
- AVCQRCQARFSPAERIVNSNGELYHEHCFVCAQCFRPFPEGLFYEFEGRKYCEHLFQML [D55L] — lower, -0.933 ± 0.083
- AVCQRCQARFSPAERIVNSNGELYHEHCFVCAQCFRPFPEGLFYEFEGRKYCEHFFQML [D55F] — lower, -1.14 ± 0.23
- AVCQRCQARFSPAERIVNSNGELYHEHCFVCAQCFRPFPEGLFYEFEGRKYCEHTFQML [D55T] — lower, -0.651 ± 0.084
- AVCQRCQARFSPAERIVNSNGELYHEHCFVCAQCFRPFPEGLFYEFEGRKYCEHPFQML [D55P] — lower, -0.839 ± 0.11
- AVCQRCQARFSPAERIVNSNGELYHEHCFVCAQCFRPFPEGLFYEFEGRKYCEHNFQML [D55N] — lower, -0.606 ± 0.12
- AVCQRCQARFSPAERIVNSNGELYHEHCFVCAQCFRPFPEGLFYEFEGRKYCEHIFQML [D55I] — lower, -0.921 ± 0.14
- AVCQRCQARFSPAERIVNSNGELYHEHCFVCAQCFRPFPEGLFYEFEGRKYCEHWFQML [D55W] — lower, -0.815 ± 0.083
- AVCQRCQARFSPAERIVNSNGELYHEHCFVCAQCFRPFPEGLFYEFEGRKYCEHSFQML [D55S] — lower, -0.667 ± 0.063
- AVCQRCQARFSPAERIVNSNGELYHEHCFVCAQCFRPFPEGLFYEFEGRKHCEHDFQML [Y51H] — lower, -0.743 ± 0.18
- AVCQRCQARFSPAERIVNSNGELYHEHCFVCAQCFRPFPEGLFYEFEGRKTCEHDFQML [Y51T] — lower, -0.702 ± 0.14
- AVCQRCQARFSPAERIVNSNGELYHEHCFVCAQCFRPFPEGLFYEFEGRKKCEHDFQML [Y51K] — within error, -0.276 ± 0.14
- AVCQRCQARFSPAERIVNSNGELYHEHCFVCAQCFRPFPEGLFYEFEGRKGCEHDFQML [Y51G] — lower, -0.922 ± 0.14
- AVCQRCQARFSPAERIVNSNGELYHEHCFVCAQCFRPFPEGLFYEFEGRKDCEHDFQML [Y51D] — within error, -0.452 ± 0.14
- AVCQRCQARFSPAERIVNSNGELYHEHCFVCAQCFRPFPEGLFYEFEGRKFCEHDFQML [Y51F] — higher, -0.053 ± 0.096
- AVCQRCQARFSPAERIVNSNGELYHEHCFVCAQCFRPFPEGLFYEFEGRKPCEHDFQML [Y51P] — lower, -0.729 ± 0.14
- AVCQRCQARFSPAERIVNSNGELYHEHCFVCAQCFRPFPEGLFYEFEGRKMCEHDFQML [Y51M] — higher, 0.088 ± 0.081
- AVCQRCQARFSPAERIVNSNGELYHEHCFVCAQCFRPFPEGLFYEFEGRKVCEHDFQML [Y51V] — higher, 0.014 ± 0.062
- AVCQRCQARFSPAERIVNSNGELYHEHCFVCAQCFRPFPEGLFYEFEGRKLCEHDFQML [Y51L] — higher, 0.186 ± 0.06
- AVCQRCQARFSPAERIVNSNGELYHEHCFVCAQCFRPFPEGLFYEFEGRKNCEHDFQML [Y51N] — lower, -0.877 ± 0.17
- AVCQRCQARFSPAERIVNSNGELYHEHCFVCAQCFRPFPEGLFYEFEGRKWCEHDFQML [Y51W] — within error, -0.426 ± 0.14
- AVCQRCQARFSPAERIVNSNGELYHEHCFVCAQCFRPFPEGLFYEFEGRKQCEHDFQML [Y51Q] — lower, -0.785 ± 0.24
- AVCQRCQARFSPAERIVNSNGELYHEHCFVCAQCFRPFPEGLFYEFEGRKECEHDFQML [Y51E] — lower, -0.604 ± 0.13
- AVCQRCQARFSPAERIVNSNGELYHEHCFVCAQCFRPFPEGLFYEFEGRKYCERDFQML [H54R] — higher, 0.108 ± 0.053
- AVCQRCQARFSPAERIVNSNGELYHEHCFVCAQCFRPFPEGLFYEFEGRKYCEADFQML [H54A] — higher, 0.064 ± 0.072
- AVCQRCQARFSPAERIVNSNGELYHEHCFVCAQCFRPFPEGLFYEFEGRKYCEVDFQML [H54V] — higher, 0.036 ± 0.061
- AVCQRCQARFSPAERIVNSNGELYHEHCFVCAQCFRPFPEGLFYEFEGRKYCEWDFQML [H54W] — within error, -0.157 ± 0.08
- AVCQRCQARFSPAERIVNSNGELYHEHCFVCAQCFRPFPEGLFYEFEGRKYCEYDFQML [H54Y] — higher, -0.061 ± 0.1
- AVCQRCQARFSPAERIVNSNGELYHEHCFVCAQCFRPFPEGLFYEFEGRKYCEKDFQML [H54K] — higher, 0.117 ± 0.079
